Experiment: soluble on expression in E. coli; label from the status in PepcDB or PDB records

Row | Sequence | soluble on expression in E. coli
1 | RSDSIMILSINPKTKKTEIVSIPRDTRAEIVGRGTTEKIAHAYAYGGPNMAVKSLEKLMNVPIDHYATIDMDGLHNMIDSIGGVDVVSNDTFTVDGVRFTKGQQTHVNGDQALKFIRSRKEEGAGGDFGRQQRQQIVLEAMANKIAS | not soluble
2 | AFKQLMFPFGMDSKMESGIVMPTTQFWNPIAINNVEAQNDFYSRENLAALKLLQKQAQEPEKLARLLEVYHESLGYNIVRRAEEAKVALSDQTAYCTGINLLSELIEVDVQRDEMIEAIESPKNKMTALVTEAVEQAGVKPDAIFMTGGSARSPILRDAVQTVLPNIPVVSGNYFGSVTAGLARWADVCFK | not soluble
3 | MGSDKIHHHHHHMKAVTLRANCDPLFSLFMTSFSEANNIYILNFKKRALQSLLKVKLMYYHESIDSKSKIFPVKIILHDKAVNVPKHWHRSLEISYTYQGSIPDFTIAGKHYSTRPGTILVVNSNEIHSVFFPKTKKRQDSLALSLIFPYPFLMKIVPNYRYRRYEIPDKELLTANNQQNLAELEGILKKFFQFASHQTNSLDEISKTSQILQILYLLTKNFSSIVTTPNDLATTDKPFERLDEIIMFIQEHAKEALTVTKIADHFNLSTSYFSRNFKYYMGNSVIEYLNLVRLHEAYQLLTNTKKSILVISTQVGFPNEKAFTRTFKRIYKVTPTDYRKRLSGKNRTNIL | not soluble
4 | MTGLINAIPATNKDEYKNVGVYIEHRGDELKRPSIEMIGIGKQLARKVNEKLICVVIGDKVDGIAKEVGEYGCDIVLAAESPELAEYRTMPYAEIIGGYIQEYKPNIFLLAATRNGRDLASRIAVKSRTGITADCTVLDIDENRTLLANRPTYGESTLAEILCRNHRPQMATARPGIFPPAEKEKDHKYEVIKKKVDVDKKLLGKQILKFI | not soluble
5 | SLKTLFEVKQLLKQYGAFIYTRDLDADMQLMQMEMEELHRLGLIERGEFQQAMLVLKREQRAAKMGERAND | soluble
6 | MGRDRISELPDGLLNHILMYLHIEESIRTSVLSSRWRKLWLKVPGLDVNVHDFPADGNLFESLMDKFLEVNRGRLQNFKLNYESNLYYLMDRFVPWIATVVDRGIQHLDVTATDCPPWTIDFMPANICKSKTLVSLKLVNVGLDTPKFVVSLPCLKIMHLEDIFYSPLIAENLISGCPVLEDLTIVRNHEDFLNFLRVMSQTLKNFRLTFDWGMGSNDFSVEIDAPGLKYMSFRDSQSDRIVVKNLSSLVKIDLDTEFNLKFGLGSPLEPEDLTKRDIIRDFLTGISSVKHMIISHPTLEVLYRYSKIGQLPKFHNLYHLQAVFSSSLLQLLPAFLEICPNLKNLILDYSISAEPEQIDFTNLPRCLISTLEYVEIKQLTMREESGIKLVKYFLENSAVLKKLTLSFIDSPMTNQESEIYMQLLTSTKRSRGCHVLIL | soluble
7 | MYRFLSGIKVVEIAGLAPVPHCGMMLADFGADVTVIDKKNPAIEQRLNRGKTMKQLDLKNPEDIKKVRDLCQTSDVLLDPYRPGTLEKMGLDPSTLWNNNKGLIICKISGYGQTGRMSQETGHDINYVALSGMLPTFSGVNATRPWPPANMLADFAGGGLSAAFGILSAIYARSHNGGKGCLLDCSMTEGVAYLSSFVQHYYDQPNLFTDKYALFSGECPIYRTYKTKDDKFVAVGAVEPKFYQNLFKLLNVDGRDLFVNPGKITEDLESRFLQKTRDKWANIFKGQECCVTPVLDIHEVGSYGQHVDRNSFTKTSSNWIANPSPRVWTQDELAALSSKK | not soluble
8 | MKVVGLDLGGTKIAAGVFDGKRLLSKVVVPTPKEGGERVAEALAEAAERAEREAGVRGEAIGLGTPGPLDFRRGVIRFAPNIPGVQDFPIRRILEEATGRPVFLENDANAAALAEHHLGAAQGEESSLYLTVSTGIGGGVVLGGRVLRGERGQGGELGHLTLLPGGPACGCGLEGCLEALAAGRALERDATYAFQRPVDTRELFRLFQAGDPKAERLVLQAARYVGIGLASLVKAFDPGVVVLGGGVALNAPEGYWEALLEAYRRYLQGWEAPPLRRARLGAEAGLLGAALTAYLEVKDGSG | soluble
9 | MKLLVATTNEGKYREIKEILSEYGIEVLKPEEKLEVEETGCTFLENAYLKARAYYERYKIPALADDSGLIVEAISPYPGVYSSRFYDIDFGGREEVRTNKDEANIRKLLRLLENTENRKAKFVAFIVVYGGSWGIFAEGEVRGEITKEPRGDRGFGYDPVFVPEGYNKTMAELSPEEKNKISHRGRALRKLVHVLKNCEKAF | soluble
10 | MGSDKIHHHHHHMANLTFYPIGTAGEKWGETEKAAWLASTQIKRSYQDDVVTPLKAMEAKLSALGLGIVQYGALSINAERYPLFAVKSQQFDPQKPTVLVTGGVHGYETSGVHGALAFLTNEAANYVQQVNLVVAVCVSPWGYETINRWNPKAIDPNRSFYANSPAEESAALMALVASVTSVEQGFDVHVDLHETTDSDELEFRPALCARDGIEYDKGTIPDGFYAVGDTEHSMDAFQKAIIDGVSKVTHIAPADEKGEIIGSTVVQHGVINYPLKSLGLCSSVTGCIYNTTTEVYPDSPTATPAECNLAQVAAITSAIDYVLAQR | not soluble
11 | SAELQEVQITEEKPLLPGQTPEAAKEAELAARILLDQGQTHSVETPYVSVTFTVYGTPKPKRPAILTYHDVGLNYKSCFQPLFQFEDMQEIIQNFVRVHVDAPGMEEGAPVFPLGYQYPSLDQLADMIPCVLQYLNFSTIIGVGVGAGAYILARYALNHPDTVEGLVLINIDPNAKGWMDWAAHKLTGLTSSIPEMILGHLFSQEELSGNSELIQKYRNIITHAPNLDNIELYWNSYNNRRDLNFERGGDITLRCPVMLVVECNSKLDPTQTSFLKMADSGGQPQLTQPGKLTEAFKYFLQGMGYMASSCMTRLSRSRTASLTSAASVDGNRSRSRTLSQSSESGTLSSGPPGHTMEVSC | not soluble
12 | MGSDKIHHHHHHMTDNFFHGVRVRESTDLVTAINDIDSTVIGIVAIADDADPEMFPLNTPVLLTRVNNALGKAGKTGSLYKSLKAISDQCSTKVIVVRVAAATDGDDNQTQSQLVIGGTAADGSYTGMYAFLTAEQKTGYRPRILAVPDHDTIEVATQLGVIAQKLRAFFYAYCHNCETIAEAKAYRETLNYREVMPIWPNFIAYNTLTGENEEFPAVAYACGLRALIDNTQGWHKSLSNVAVNNVLGISKDVFWALQAEDSDANELNAHEITTLIKRDGFRFWGNRTTDPDKEYIFEVYTRTAQILADSIAEAQFTTVDKPMTPGNVKDVVSGINAKLQALVTAGKLIGAACWFDIVDNPTTGLRQGKCIVRYNYTPVPPLEDLSLYQTFTDQYFETAFSSLGGA | not soluble
13 | MGSDKIHHHHHHMSQLEKAQAEYAGFIQEFQSAIISTISEQGIPNGSYAPFVIDDAKNIYIYVSGLAVHTKNIEANPLVNVLFVDDEAKTNQIFARRRLSFDCTATLIERESQKWNQVVDQFQERFGQIIEVLRGLADFRIFQLTPKEGRFVIGFGA | soluble
14 | PLNEVVRLHGSSGTSGKPTVVAYTQKDLEHWSSIIARSIYMAGGRKGDLLHNAYGYGLFTGGLGLHGGSEKLGCVTVPISGGNTQRQITLIQDFKPRVICGTPSYIMNIGETMKKMGIDPASTSIQYAILGSEPWSEEMRKNLETMFNMKAMDIYGLSEVIGPGVGMEC | not soluble
15 | MSVTKLNNGKWQARVSYKDDDGNYKSVTHLEKRKTDAVEWETKTKNALLEGADLSRSTESLKHYFLDWIRIYKTDGVSRHTHELYMGNWRHIAAYFKDRPMSAIKRPDYQKFLNEFGRSHGIATSHKLHQQVHTAIKDAVADGILKRDFAYKAHVTGRPPKPVEEKYLTLSDYKKLRKYLIKTADYDHMTMLMMLFQLETGTRFEEAAGLTWDNLDLNNGIVHIKQQWDARRQTFRPTKGNGQADGDITIGPAYCRFMRSYRSTQKDYLELHEMKNPKNLVFWSKLGKIVGNGNANEELGRICNRLKINKVTTHAMRHTHASILILNHESLPYVQHRLRHQKLETTVNTYVHLIEEENGVSDKKATELMDEGF | not soluble
16 | MSLTKVSAFFSTCKAGVFLGWDRNIDTSIAYTDGYSNRLDIISYDLCNWNGNNDSSSISWDSASTIRDLQKPNIPLIKQYKGPYAHLIKNVIISAHMPCPTGGTSNGSISPQDFATLANTKIQDINSSSPWFLQNYKAIVSKVGDGLEYYGHVGTVYFRPFHEVNGNWFWWGDKDVSQYKQLWINLHDYLVSKNSGCRGLTWLKFCYAPNSGKNAALYYPGDDYVDMVGMDAYSDNPSTDTYVKRAYAELTGGTYNGVTYPGIDKPFGFPELGPNVGGDYVDNKNRLIKKFDYKRWSDAIKLNYPKASYFIIWNGGYEPRNNDNGTSLFNMSYEGHHHHHH | soluble
17 | TRTLRGVMRVGLVAKCLLLKGDLDLELVLLCKEKPTTALLDKVADNLAIQLAAVTEDKYEILQSVDDAAIVIKNTKEPPLSLTIHLTSPVVREEMEKVLAGETLSVNDPPDVLDRQKCLAALASLRHAKWFQARANGLKSCVIVIRVLRDLCTRVPTWGPLRGWPLELLCEKSIGTANRPMGAGEALRRVLECLASGIVMPDGSGIYDPCEKEATDAIGHLDRQQREDITQSAQHALRLAAFGQLHKVLGMD | not soluble
18 | DAFTDQKIRQRYADLPGELHIIELEKDKNGLGLSLAGNKDRSRMSIFVVGINPEGPAAADGRMRIGDELLEINNQILYGRSHQNASAIIKTAPSKVKLVFIRNEDAVNQMA | soluble
19 | MSAIEVTADAASTWDWPLQHNDGVVKVHNTKEKFEVGLDVQFFTPKEIEVKVSGQELLIHCRHETRSDNHGTVAREINRAYKLPDDVDVSTVKSHLATRGVLTITASKKA | soluble
20 | MGSDKIHHHHHHMNTPAPRKRREMKIKTATVTGVRQISPDLIRFSFDCPEIVGADLGFTDHYIKILFVPAGADYSWPFDMAEIAETQPRELQPVRRTYTFRTVDTVAGTFDIDFVAHGTDGLAGPWAQQAQVGDVIAFGGPGGAWKPETTYEHYVLAGDEAAAPAIFAALEHLPAGTTAKAFIEISSNEARFNAPASDNIEVVWVPRDGATHGTLLIDALRQDGYPTKKTSWFIHGVAEMVKETRKFLFVEGNVDKADASISGYWRLGMTEDQWQASKREFNEQNEAEELALSKA | not soluble
21 | MKLLALVALCAVGVASHRDKRQLSIGTISVSGAGGSTGCVVTGNVLYANGIRLRNLTSSEQSELATYQTEVEQYKTQLRNILSQRRENLRNRLMSQGRNQQQQSNDVSSQGGNDDGSIPKAPEKPSFCTAEDTTQYYFDGCMVQGNKVYVGGQYARDLSSDEISELQTFDTQQTAYQNAVQSQMQSQVQGLFGGSDFLSALFGGDRFNQQQQRQQPSSTTPASTSSTTLPPKPTVPQFCTAIF | not soluble
22 | MRITIVTIFPEMVEVIKKYGVIARAVERGIVEINVENLRDYTTDRHRTVDDYQYGGGYGMVMKPEPFFRFYESYVEKYGKPYVILTSPQGRIFNYKIAEELSKKDDIVIFCGRYEGIDERVMSIVDDEISIGDYILTGGELPAMVITDAVVRLVPGVVERESVERESFHQGLLDHPVYTRPYEYKGMKVPDVLLSGDHEKVELWRRKESIKKTLAKRPDLFLAKELDEMDKLAIIELFRELMEKC | soluble
23 | SLTRATKGFLSKSLPKASEATPGSQSSDYIPLVSLQLASGAFLLNEAFCTTIQIPMEKLKWTSPFSCLRMSLVTRRQDLKTQSPQDCTSLSSSPPSCDGISLKSEESSDQESNAMLEHMGKLWATVVALAWLEHSSANYIIEWELVAAKASSWVEKQKVPEGRTLSTLKNTARQLFVLLRHWDEKLEFNMLCYNPNYV | soluble
